Assay results reported in patent publication US20170137855A1, “RECOMBINANT CELLS AND METHODS FOR NONPHOSPHORYLATIVE METABOLISM” (REGENTS OF THE UNIVERSITY OF MINNESOTA, priority 2015, published 2017).

Tests used:
[1] = substrate: O=C(O)C(=O)C[C@H](O)CO; test: 2-ketoacid decarboxylase Kivd wild type, coupled assay, NADPH oxidation at 340 nm; type: biochemical; conditions: other: wild type; BTO substrate; pH 7.5; 30.0 °C
Experimental: (§1) 2-Ketoacid decarboxylase (Kivd) and alcohol dehydrogenase (YqhD): The decarboxylase activity of Kivd was measured by a coupled enzymatic assay with AraC, AraD, and YqhD (Zhang et al., 2011. ChemSusChem 4:1068-1070). Excess AraC, AraD, and YqhD was used and the oxidation of NADPH was monitored at 340 nm. The assay mixture contained 1 mM NADPH, 1 μM AraC, 1 μM AraD, and 100 nM YqhD and 0.1-10 mM L-arabonate in assay buffer (100 mM Tris-HCl buffer, pH 7.5, 5 mM MgSO4, 0.5 mM ThDP) with a total volume of 0.1 ml. The mixture was incubated at 30° C. for one hour and 10 nM Kivd was added. The dehydrogenase activity of YqhD was assayed according to NADPH initial consumption rates in a coupled assay. The assay mixture contained 1 mM NADPH, 100 nM Kivd, 1 μM AraC, 1 μM AraD, and 0.1-10 mM L-arabonate in 100 μl of 100 mM Tris-HCl buffer (pH 7.5) with 5 mM MgSO4. The mixture was first incubated at 30° C. for one hour. Afterwards, 10 nM YqhD was added and the NADPH consumption rate was monitored.

[2] = substrate: O=CCCC(=O)C(=O)O; test: as above; type: biochemical; conditions: other: coupled assay, substrate from 0.1-10 mM L-arabonate, 1 mM NADPH, 0.5 mM ThDP, pH 7.5, 10 nM Kivd, 30.0 °C
Experimental: as §1

[3] = substrate: O=C(O)C(=O)C[C@H](O)CO; test: 2-ketoacid decarboxylase Kivd V461I mutant, coupled assay, NADPH oxidation at 340 nm; type: biochemical, Lactococcus lactis; conditions: other: V461I mutant; BTO substrate; pH 7.5; 30.0 °C
Experimental: as §1

[4] = substrate: O=CCCC(=O)C(=O)O; test: as above; type: biochemical, Lactococcus lactis; conditions: other: V461I mutant, coupled assay, pH 7.5, 30.0 °C
Experimental: as §1

B1: Lactococcus lactis 2-ketoacid decarboxylase Kivd, wild type (Lactococcus lactis subsp. lactis) (protein)
chain: MYTVGDYLLDRLHELGIEEIFGVPGDYNLQFLDQIISHKDMKWVGNANELNASYMADGYARTKKAAAFLTTFGVGELSAVNGLAGSYAENLPVVEIVGSPTSKVQNEGKFVHHTLADGDFKHFMKMHEPVTAARTLLTAENATVEIDRVLSALLKERKPVYINLPVDVAAAKAEKPSLPLKKENSTSNTSDQEILNKIQESLKNAKKPIVITGHEIISFGLEKTVTQFISKTKLPITTLNFGKSSVDEALPSFLGIYNGTLSEPNLKEFVESADFILMLGVKLTDSSTGAFTHHLNENKMISLNIDEGKIFNERIQNFDFESLISSLLDLSEIEYKGKYIDKKQEDFVPSNALLSQDRLWQAVENLTQSNETIVAEQGTSFFGASSIFLKSKSHFIGQPLWGSIGYTFPAALGSQIADKESRHLLFIGDGSLQLTVQELGLAIREKINPICFIINNDGYTVEREIHGPNQSYNDIPMWNYSKLPESFGATEDRVVSKIVRTENEFVSVMKEAQADPNRMYWIELILAKEGAPKVLKKMGKLFAEQNKS
notes: also expressed from pBDO-5 in E. coli fermentation (A5)
[1]
  kcat/Km: 7700 M⁻¹ s⁻¹
[2]
  Km: 4.8 mM
  kcat: 4.8 s⁻¹

B2: Lactococcus lactis 2-ketoacid decarboxylase Kivd variant V461I (Lactococcus lactis subsp. lactis; V461I) (protein)
chain: MYTVGDYLLDRLHELGIEEIFGVPGDYNLQFLDQIISHKDMKWVGNANELNASYMADGYARTKKAAAFLTTFGVGELSAVNGLAGSYAENLPVVEIVGSPTSKVQNEGKFVHHTLADGDFKHFMKMHEPVTAARTLLTAENATVEIDRVLSALLKERKPVYINLPVDVAAAKAEKPSLPLKKENSTSNTSDQEILNKIQESLKNAKKPIVITGHEIISFGLEKTVTQFISKTKLPITTLNFGKSSVDEALPSFLGIYNGTLSEPNLKEFVESADFILMLGVKLTDSSTGAFTHHLNENKMISLNIDEGKIFNERIQNFDFESLISSLLDLSEIEYKGKYIDKKQEDFVPSNALLSQDRLWQAVENLTQSNETIVAEQGTSFFGASSIFLKSKSHFIGQPLWGSIGYTFPAALGSQIADKESRHLLFIGDGSLQLTVQELGLAIREKINPICFIINNDGYTIEREIHGPNQSYNDIPMWNYSKLPESFGATEDRVVSKIVRTENEFVSVMKEAQADPNRMYWIELILAKEGAPKVLKKMGKLFAEQNKS
notes: coupled with AraC/AraD/YqhD
[3]
  kcat/Km: 500 M⁻¹ s⁻¹
[4]
  kcat/Km: 2500 M⁻¹ s⁻¹
